In publication PMC6144786, “DNA binding with a minimal scaffold: structure–function analysis of Lig E DNA ligases” (Nucleic Acids Research, 2018):

Assays:
Ame-Lig = biological target: T1, Ame-Lig (Alteromonas mediterranea, UniProt Z9I348I3L4); assay: molecular beacon ligation assay; assay type: biochemical; settings: 0.1 mM ATP, 300 nM nicked DNA substrate, 10 mM MgCl2, pH 8.0, 30 °C
T1 construct: predicted mature form, signal peptide omitted (cleavage between 21 and 22), codon-optimised synthetic gene in pDEST17; monomer in the asymmetric unit with nicked DNA
T1 sequence (Z9I348I3L4 2-297): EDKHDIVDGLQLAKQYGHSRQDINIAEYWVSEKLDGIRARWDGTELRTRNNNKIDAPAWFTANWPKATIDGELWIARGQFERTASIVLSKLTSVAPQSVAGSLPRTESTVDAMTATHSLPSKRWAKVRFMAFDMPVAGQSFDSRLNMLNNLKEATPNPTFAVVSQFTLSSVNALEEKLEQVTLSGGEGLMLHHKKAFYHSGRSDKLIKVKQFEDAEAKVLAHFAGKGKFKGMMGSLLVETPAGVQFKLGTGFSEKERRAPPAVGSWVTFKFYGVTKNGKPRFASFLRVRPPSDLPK

Psy-Lig R69A = assay: MST; settings: 5' phosphate on S24 at nick, MST: 50 mM Tris, 100 mM NaCl, 1 mM DTT, 5 mM EDTA, 1 mM ATP, 0.5% Tween, 40 nM DNA, incubated 4 C, read 25 C, EMSA: 50 mM Tris pH 8.0, 50 mM NaCl, 0.
Psy-Lig N144A = assay: MST; settings: 5' phosphate on S24 at nick, MST: 50 mM Tris, 100 mM NaCl, 1 mM DTT, 5 mM EDTA, 1 mM ATP, 0.5% Tween, 40 nM DNA, incubated 4 C, read 25 C, EMSA: 50 mM Tris pH 8.0, 50 mM NaCl, 0.
Psy-Lig R80A = assay: MST; settings: 5' phosphate on S24 at nick, MST: 50 mM Tris, 100 mM NaCl, 1 mM DTT, 5 mM EDTA, 1 mM ATP, 0.5% Tween, 40 nM DNA, incubated 4 C, read 25 C, EMSA: 50 mM Tris pH 8.0, 50 mM NaCl, 0.
Psy-Lig K193A = assay: MST; settings: 5' phosphate on S24 at nick, MST: 50 mM Tris, 100 mM NaCl, 1 mM DTT, 5 mM EDTA, 1 mM ATP, 0.5% Tween, 40 nM DNA, incubated 4 C, read 25 C, EMSA: 50 mM Tris pH 8.0, 50 mM NaCl, 0.
Psy-Lig S215A = assay: MST; settings: 5' phosphate on S24 at nick, MST: 50 mM Tris, 100 mM NaCl, 1 mM DTT, 5 mM EDTA, 1 mM ATP, 0.5% Tween, 40 nM DNA, incubated 4 C, read 25 C, EMSA: 50 mM Tris pH 8.0, 50 mM NaCl, 0.
[1] = test system: Psy-Lig WT (Lig E DNA ligase); assay: MST; settings: 5' phosphate on S24 at nick, MST: 50 mM Tris, 100 mM NaCl, 1 mM DTT, 5 mM EDTA, 1 mM ATP, 0.5% Tween, 40 nM DNA, incubated 4 C, read 25 C, EMSA: 50 mM Tris pH 8.0, 50 mM NaCl, 0.
Psy-Lig K176A = assay: MST; settings: 5' phosphate on S24 at nick, MST: 50 mM Tris, 100 mM NaCl, 1 mM DTT, 5 mM EDTA, 1 mM ATP, 0.5% Tween, 40 nM DNA, incubated 4 C, read 25 C, EMSA: 50 mM Tris pH 8.0, 50 mM NaCl, 0.
Psy-Lig K212A = assay: MST; settings: 5' phosphate on S24 at nick, MST: 50 mM Tris, 100 mM NaCl, 1 mM DTT, 5 mM EDTA, 1 mM ATP, 0.5% Tween, 40 nM DNA, incubated 4 C, read 25 C, EMSA: 50 mM Tris pH 8.0, 50 mM NaCl, 0.
Psy-Lig K25A = assay: MST; settings: 5' phosphate on S24 at nick, MST: 50 mM Tris, 100 mM NaCl, 1 mM DTT, 5 mM EDTA, 1 mM ATP, 0.5% Tween, 40 nM DNA, incubated 4 C, read 25 C, EMSA: 50 mM Tris pH 8.0, 50 mM NaCl, 0.

Row | Compound | molecular beacon ligation assay (Ame-Lig) | K half (Psy-Lig R69A) [µM] | K half (Psy-Lig N144A) [nM] | K half (Psy-Lig R80A) [µM] | K half (Psy-Lig K193A) [nM] | K half (Psy-Lig S215A) [nM] | K half [1] [nM] | K half (Psy-Lig K176A) [µM] | K half (Psy-Lig K212A) [µM] | K half (Psy-Lig K25A) [µM]
1 | Nc1ncnc2c1ncn2[C@@H]1O[C@H](COP(=O)(O)OP(=O)(O)OP(=O)(O)O)[C@@H](O)[C@H]1O [ATP] | Ligase activity of Ame-Lig and Psy-Lig mutants were measured by molecular beacon (MB) assay | – | – | – | – | – | – | – | – | –
2 | AGGCCATGGCTGATATCGGA / TCCGAATTCGAGCTCCGTCG / CGACGGAGCTCGAATTCGGATCCGATATCAGCCATGGCCT [nicked 40-mer (MST)] | – | 3.08 | 2450 | 3.62 | 2550 | 1740 | 980 | 5.17 | 7.1 | 3.3
